We go through 15 molecules from patent US20170002074A1 (Genentech, published 2017).

Where a chain is given by its changes, count along the chain named. A value given as a limit tells only on which side of the number the result lay.

Sequences and labels used below:
B1: 9C2 (antibody, V domains shown)
VH: QVQLVQSGAEVKKPGSSVKVSCKASGDTFSSYSISWVRQAPGQGLEWMGEIIPIFGTADYAQKFQGRVTITADISTTTAYMELSSLRSEDTAVYYCARTWADAFDIWGQGTMVTVSS
VL: not shown
B2: 10D3 (antibody, V domains shown)
VH: EVQLVESGAEVKKPGSSVKVSCKASGGTLISHAISWVRQVPGQGLEWMGGIIPIFGSANYAQKFQGRVTITADDSTNTAYLELSSLRSEDTAVYYCARELLDVFDIWGQGTMVTVSS
VL: not shown
B3: 15G15 (antibody, V domains shown)
VH: QVQLVQSGAEVKKPGSSVKVSCKASGGIFSNHAISWVRQAPGQGLEWMGGIIPIFGTANYAQKFQGRVTITADESTSTAFMELSSLRSEDTAVYYCAREWADVFDIWGQGTMVTVSS
VL: not shown
B4: 7A1 (antibody, V domains shown)
VH: B3 VH with I28T, S30T, N31S, H32Y, I34V, N59D, F80Y, W100L
VL: not shown
B5: 9C3 (antibody, V domains shown)
VH: EVQLVESGGALIQPGGSLRLSCVASGFTISGNYMSWVRQAPGKGLEWVSLIYSGDSTYYADSVKGRFNISRDISKNTVYLQMNSLRVEDTAVYYCVRDGYYVSDMVVWGKGTTVTVSS
VL: DIQMTQSPSSLSASVGDRVTITCRASQGIRNDLGWYQQKPGKAPKRLIYAASSLQSGVPSRFSGSGSGTEFTLTISSLQPEDFATYYCLQHNSYPWTFGQGTKLEIK
modifications: atypical N-linked glycosylation site in the heavy chain between CDR2 and CDR3 at position 69 (kabat #)
B6: 9C3.3 (antibody, V domains shown)
VH: B5 VH with N68S
VL: B5 VL
notes: Variant of 9C3 with the heavy chain N-glycosylation site removed
B7: 9C3.2 (antibody, V domains shown)
VH: B5 VH with N68T
VL: B5 VL
notes: as for B6
B8: 9C3.4 (antibody, V domains shown)
VH: B5 VH with N68A
VL: B5 VL
notes: as for B6
B9: 23E4 (antibody, V domains shown)
VH: EVQLQQSGAELVRPGASVKLSCKASGYTFTNYWMNWVKQRPGQGLEWIGMIDPSDNETHYSQMFKDKATLTVDKSSSTAYMQLISLTSEDSAVYYCAGYYGNFGWFVYWGQGTLVTVSA
VL: DIFMTQTPLSLPVSLGDPASISCRSSQTIVHSNGNTYLEWYLQKPGQSPKLLIYKVSNRFSGVPDRFSGSGSGTDFTLKISRVEAEDLGVYYCFQGSHVPPTFGGGTKVEIK
B10: 33F9 (antibody, V domains shown)
VH: EVQLQQSGPELVKPGASVKMSCKASGYTFTSYVMHWMKQKPGQGLEWIGYINPYNDGTKYNDKFKGKATLTSDKSSSTAYMELSSLTSEDSAVYYCARGSNYEDFAMDYRGQGTSVTVSS
VL: DIVMTQSPASQSASLGESVTITCLASQTIGTWLAWYQQKPGKSPQLLIYAATTLADGVPSRFSGSGSGTKFSFKISSLQAEDFVSYYCQQLYSTPLTFGGGTKVEIK
B11: 15G15.88 (antibody, V domains shown)
VH: B3 VH
VL: EIVLTQSPLSLPVTPGEPASISCRSSQSLLHSNGYNYLDWYLQKPGQSPQLLIYLGNYRVSGVPDRFSGSGSGTDFTLKISRVEAEDVGVYYCMQALQTPWTFGQGTKVEIK
notes: Variant of 15G15
B12: 15G15.83 (antibody, V domains shown)
VH: B3 VH
VL: B11 VL with N57A, R59T
notes: Variant of 15G15
B13: 15G15.33 (antibody, V domains shown)
VH: B3 VH
VL: B11 VL with N57V, Y58N, R59S
notes: Variant of 15G15
B14: 27C6 (antibody, V domains shown)
VH: EVQLQQSGPELVKPGASVKVSCKASGYAFTSYNMYWVKQSHGKSLEWIGYIDPYNGGTRHNQKFKDKATLTVDKSSSTAYMHLNSLTSEDSAVYYCASQNYEYFDYWGQGTTLTVSS
VL: DIVLTQSPKFMSTSVGDRVSITCKASQDVGDAVAWYQQKPGQSPKLLFYWTSTRHTGVPDRFTGSGSGTEFTLTIRNVQSEDLADYFCQQYRSTPLTFGSGTKVEIK
B15: 33H4 (antibody, V domains shown)
VH: EVQLQQSGAELVKPGASVKMSCKAFGYTFTTFPIEWMKQSHGKSLEWIGNFHPYNDQTKYNEEFKGRAKLTIDRSSSTVYLELGRLTSDDSAVYYCARGYYYAFDFWGQGTTLTVSS
VL: DIQMTQSPASLTVSLGQRATISCRASESVDSYGNSYLHWYQQKPGQPPQLLIYLASNLESGVPARFSGSGSRTDFTLTIDPVEADDAATYYCQQNNEDPWTFGGGTKVEIK

The target in the first experiment is T1, huCD33 R69G variant (human, UniProt P20138 18-364).
T1 construct: also called G69 CD33; SNP R69G (r2455069)
As to the kind of experiment: FACS, direct Dylight 488 conjugate, on 293AD cells labelled 'SNPG69R', taken as the SNP variant of paragraph 650.
Take B1: the “Geom. Mean:FL1-H” value amounted to 71.7.

B2: the “Geom. Mean:FL1-H” value came out at 103.

For B3, the “Geom. Mean:FL1-H” value was determined as 123.

Regarding B4, the “Geom. Mean:FL1-H” value came to 125.

In a further experiment the target is T2, Construct-88: irrelevant Ig-like V linked to a CD33 Ig-like C (R144-Q228 including TM/CD L229) (human).
T2 construct: N-terminal or cytoplasmic tags were attached
As to the kind of experiment: FACS on 293 cells transiently transfected with construct 88, Dylight-650 labelled antibody at 1-10 µg/ml.
For B1, the “Geom. Mean:FL4-H” value turned out to be 11.2.

Take B2: the “Geom. Mean:FL4-H” value is 12.1.

On to B4, for which the “Geom. Mean:FL4-H” value was found to be 13.

The target of another experiment is T3, Human CD33 (human, UniProt P20138 18-364).
T3 construct: One molecule is used for recombinant CD33 on HEK293AD/293 cells and for endogenous human CD33 on tumor or myeloid cells; the cell is named under assay; also called huCD33; hu CD33
Description: FACS titration on EOL-1 cells (endogenous huCD33), geometric mean fluorescence, 0.1-10 µg/ml antibody.
On to B5, for which a half-maximal response (EC50) required 0.54 µg/mL.

In turn, B6 gave an EC50 of 0.42 µg/mL.

In the case of B7, a half-maximal response (EC50) required 0.46 µg/mL.

In turn, B8 returned a concentration giving a half-maximal response (EC50) of 0.23 µg/mL.

In a further experiment the target is T4, Construct-88B: CD33 Ig-like V (M17-V136 including spacer H137-H143) linked to an irrelevant Ig-like C … (human).
T4 construct: also called Ig-like V domain of huCD33
Description: FACS, Dylight-650 labeled antibody (1-10 ug/ml) on 293 cells transiently transfected with construct 88B.
For B1, the “fold binding over isotype control” value was at least 100 fold.

On to B2, for which the “fold binding over isotype control” value was at least 100 fold.

The target of the next experiment is T5, Cynomolgus monkey CD33 (cynomolgus monkey).
T5 construct: Used for recombinant CD33 on HEK293AD cells and endogenous CD33 on cynomolgus CD14+/CD33+ myeloid cells; also called cynoCD33; cyno CD33
Description: FACS, HEK293AD cells stably expressing cynomolgus CD33.
For B9, the binding result is “no binding (tested: 1 mg/ml)”.

Another experiment deals with T5, Cynomolgus monkey CD33. Description: Scatchard analysis, [125I]-labeled antibody competed by unlabeled antibody, HEK293AD cells stably expressing cynomolgus CD33.
In the case of B1, the dissociation constant (Kd) came to 0.7 nM.

For B2, the affinity, expressed as Kd, was 0.7 nM.

B10 displayed a Kd of 0.92 nM.

For the molecule B11, the Kd came to 0.2 nM.

B12: the affinity, expressed as Kd, was 0.2 nM.

B13 had an equilibrium dissociation constant (Kd) of 0.3 nM.

The molecule B4 yielded a Kd of 0.54 nM.

The molecule B14 showed an equilibrium dissociation constant (Kd) of 4.5 nM.

B5: binding was characterised by a dissociation constant (Kd) of 0.6 nM.

The target of the next experiment is T5, Cynomolgus monkey CD33. As to the kind of experiment: Scatchard analysis, HEK293AD cells stably expressing cynomolgus CD33; Scatchard analysis on 293-cynCD33 cells.
As to B15, the binding result is “no binding”.

The target in a further experiment is T3, Human CD33. Description: Scatchard analysis, [125I]-labeled antibody competed by unlabeled antibody, HEK293AD cells stably expressing human CD33.
As for B15, the Kd is 2.4 nM.

B1 gave a Kd of 6.5 nM.

The molecule B2 gave a dissociation constant Kd of 3.3 nM.

Turning to B10, binding was put at a Kd of 8.7 nM.

For the molecule B11, the Kd was 0.7 nM.

Molecule B12 displayed an equilibrium dissociation constant (Kd) of 0.5 nM.

With B13, the Kd amounted to 0.7 nM.

B14: the affinity, expressed as Kd, was 13.4 nM.

Molecule B5 displayed a Kd of 0.8 nM.

Another experiment deals with T4, Construct-88B: CD33 Ig-like V (M17-V136 …). Description: FACS on 293 cells transiently transfected with construct 88B, Dylight-650 labelled antibody at 1-10 µg/ml.
As to B1, the “Geom. Mean:FL4-H” value was 366.

For B2, the “Geom. Mean:FL4-H” value stood at 684.

In the case of B4, the “Geom. Mean:FL4-H” value was determined as 772.

The next experiment has as its target T1, huCD33 R69G variant. As to the kind of experiment: FACS, direct Dylight 488 conjugate, on 293AD cells labelled 'SNPG69R', taken as the SNP variant of paragraph 650. This is another data set of the same source.
B15: the “Geom. Mean:FL1-H” value amounted to 78.7.

B10: the “Geom. Mean:FL1-H” value came out at 85.2.

Regarding B9, the “Geom. Mean:FL1-H” value amounted to 50.1.

With B14, the “Geom. Mean:FL1-H” value is 32.3.

The target in another experiment is T3, Human CD33. As to the kind of experiment: Scatchard analysis, [125I]-labeled antibody competed by unlabeled antibody, Molm-13 cells (endogenous CD33).
Consider B15, for which the affinity, expressed as Kd, was 0.6 nM.

The molecule B1 registered a Kd of 10.3 nM.

In the case of B2, binding was put at a Kd of 2.6 nM.

For the molecule B10, the dissociation constant (Kd) was about 9.2 nM.

The molecule B11 displayed a Kd of 0.8 nM.

Take B12: the equilibrium dissociation constant (Kd) is 0.5 nM.

B13: the affinity, expressed as Kd, was 0.9 nM.

B14 returned a Kd of 23 nM.

In turn, B5 showed an equilibrium dissociation constant (Kd) of 5.8 nM.

B6 returned a Kd of 2.2 nM.

Take B7: binding was characterised by a dissociation constant (Kd) of 2 nM.

Molecule B8 registered a Kd of 2.7 nM.
